# B1: SEQ ID NO 42 (VHH)
# chain: EVQLVESGGGLVQPGGSLRLSCAASGRTFSYNPMGWFRQAPGKGRELVAAISRTGGSTYYPDSVEGRFTISRDNAKRMVYLQMNSLRAEDTAVYYCAAAGVRAEDGRVRTLPSEYTFWGQGTQVTVSSAAAEVQLVESGGGLVQPGGSLRLSCAASGRTFSYNPMGWFRQAPGKGRELVAAISRTGGSTYYPDSVEGRFTISRDNAKRMVYLQMNSLRAEDTAVYYCAAAGVRAEDGRVRTLPSEYTFWGQGTQVTVSSA
# notes: Nanobody construct; C-terminal: A
# B2: SEQ ID NO 38 (bispecific antibody)
# chain: EVQLVESGGGLVQPGGSLRLSCAASGFTFSSYAMSWVRQAPGKGLEWVSGIKSSGDSTRYAGSVKGRFTISRDNAKNTLYLQMNSLRPEDTAVYYCAKSRVSRTGLYTYDNRGQGTLVTVSSGGGGSGGGGSGGGGSGGGGSEVQLVESGGGLVQPGGSLRLSCAASGRTFNNYAMGWFRQAPGKEREFVAAITRSGVRSGVSAIYGDSVKDRFTISRDNAKNTLYLQMNSLRPEDTAVYYCAASAIGSGALRRFEYDYSGQGTLVTVSSA
# notes: as for B1
# B3: SEQ ID NO 47 (VHH)
# VHH: EVQLVESGGGLVQPGGSLRLSCAASGSVFKINVMAWYRQAPGKGRELVAGIISGGSTSYADSVKGRFTISRDNAKNTLYLQMNSLRPEDTAVYYCAFITTESDYDLGRRYWGQGTLVTVSS
# B4: SEQ ID NO 43 (bispecific antibody)
# chain: DVQLVESGGGLVQPGGSLRLSCAASGFILDYYAIGWFRQAPGKEREGVLCIDASDDITYYADSVKGRFTISRDNSKNTVYLQMNSLRPEDTAVYYCATPIGLSSSCLLEYDYDYWGQGTLVTVSSGGGGSGGGSEVQLLESGGGLVQPGGSLRLSCAASGFTFRSFGMSWVRQAPGKGPEWVSSISGSGSDTLYADSVKGRFTISRDNSKNTLYLQMNSLRPEDTAVYYCTIGGSLSRSSQGTLVTVSSA
# notes: as for B1
# B5: SEQ ID NO 48 (VHH)
# VHH: EVQLVESGGGLVQPGGSLRLSCIASGLPFSTKSMGWFRQAPGKEREFVARISPGGTSRYYGDFVKGRFAISRDNAKNTTWLQMNSLKAEDTAVYYCASGERSTYIGSNYYRTNEYDYWGTGTQVTVSS
# B6: SEQ ID NO 49 (VHH)
# VHH: EVQLLESGGGLVQPGGSLRLSCAASGLPFSTKSMGWFRQAPGKGREFVSRISPGGTSRYYGDFVKGRFTISRDNSKNTLYLQMNSLRAEDTAVYYCASGERSTYIGSNYYRTNEYDYWGQGTLVTVSS
# notes: C-terminal tag plus humanizing mutations
# B7: SEQ ID NO 45 (VHH)
# VHH: EVQLVESGGGLVQAGGSLRLSCAASRSIGRLDRMGWYRHRTGEPRELVATITGGSSINYGDFVKGRFTISIDNAKNTVYLQMNNLKPEDTAVYYCNFNKYVTSRDTWGQGTQVTVSS
# notes: mutations: P14A, P41T, S62F, S74A, S82bN, R83K, L108Q
# B8: SEQ ID NO 71 (VHH)
# VHH: EVQLVESGGGLVQPGGSLRLSCAASRSIGRLDRMGWYRHRPGEPRELVATITGGSSINYGDSVKGRFTISIDNSKNTVYLQMNSLRPEDTAVYYCNFNKYVTSRDTWGQGTLVTVSG
# notes: S113G
# B9: SEQ ID NO 46 (VHH)
# VHH: EVQLVESGGGLVQAGGSLRLSCAASRSIGRLDRMGWYRHRTGEPRELVATITGGSSINYGDFVKGRFTISIDNAKNTVYLQMNNLKPEDTAVYYCNFNKYVTSRDTWGQGTQVTVSS
# notes: C-terminal tag
# B10: SEQ ID NO 70 (VHH)
# VHH: EVQLVESGGGLVQPGGSLRLSCAASRSIGRLDRMGWYRHRPGEPRELVATITGGSSINYGDSVKGRFTISIDNSKNTVYLQMNSLRPEDTAVYYCNFNKYVTSRDTWGQGTLVQVSS
# notes: T110Q
# B11: SEQ ID NO 69 (VHH)
# VHH: EVQLVESGGGLVQPGGSLRLSCAASRSIGRLDRMGWYRHRPGEPRELVATITGGSSINYGDSVKGRFTISIDNSKNTVYLQMNSLRPEDTAVYYCNFNKYVTSRDTWGQGTQVTVSS
# notes: L108Q
# B12: SEQ ID NO 67 (VHH)
# VHH: EVQLVESGGGLVQPGGSLRLSCAASRSIGRLDRMGWYRHRPGEPRELVATITGGSSINYGDSVKGRFTISIDNSKNTVYLQMNSLKPEDTAVYYCNFNKYVTSRDTWGQGTLVTVSS
# notes: R83K
# B13: SEQ ID NO 68 (VHH)
# VHH: EVQLVESGGGLVQAGGSLRLSCAASRSIGRLDRMGWYRHRPGEPRELVATITGGSSINYGDSVKGRFTISIDNSKNTVYLQMNSLRPEDTAVYYCNFNKYVTSRDTWGQGTQVTVSS
# notes: P14A, L108Q
# B14: SEQ ID NO 78 (VHH)
# VHH: EVQLVESGGGLVRPGGSLRLSCAASRSIGRLDRMGWYRHRPGEPRELVATITGGSSINYGDSVKGRFTISIDNSKNTVYLQMNSLRPEDTAVYYCNFNKYVTSRDTWGQGTLVTVSS
# notes: Q13R
# B15: SEQ ID NO 66 (VHH)
# VHH: EVQLVESGGGSVQPGGSLRLSCAASRSIGRLDRMGWYRHRPGEPRELVATITGGSSINYGDSVKGRFTISIDNSKNTVYLQMNSLRPEDTAVYYCNFNKYVTSRDTWGQGTLVTVSS
# notes: L11S
# B16: SEQ ID NO 65 (VHH)
# VHH: EVQLVESGGGLVQAGGSLRLSCAASRSIGRLDRMGWYRHRPGEPRELVATITGGSSINYGDSVKGRFTISIDNSKNTVYLQMNSLRPEDTAVYYCNFNKYVTSRDTWGQGTLVTVSS
# notes: P14A
# B17: SEQ ID NO 72 (VHH)
# VHH: EVQLVESGGGLVQPGGSLRLSCAASRSIGRLDRMGWYRHRPGEPRELVATITGGSSINYGDSVKGRFTISIDNSKNTVYLQMNSLRPEDTAVYYCNFNKYVTSRDTWGQGTLVTVGG
# notes: S112G, S113G
# Assays:
# [1] = target: T1, monoclonal antibody 21-4-3; test: Biacore, captured 21-4-3
# T1 construct: mouse IgG1 heavy chain, kappa light chain; also called mAb21-4-3; produced by hybridoma ABH0015 (LMBP-9680-CB)
# Experimental: Binding measurements were performed using a Biacore T100 using a CM5 T120416 sensor chip, with running buffer HBS-EP+, 25° C. […] The anti-mouse IgG used was a polyclonal rabbit anti-mouse IgG antibodies reacting with all IgG subclasses, IgA and IgM (GE Healthcare; Cat#BR-1008-38; Lot#10056316). Immobilisation of the anti-mouse IgG was performed using manual amine coupling using a 7 minute injection of EDC/NHS for activation and a 7 minute injection of 1M ethanolamine HCl pH 8.5 for deactivation (Biacore, amine coupling kit).
# [2] = target: T2, purified interference factor(s) from serum of Donor A; test: Biacore, immobilized interference factor
# T2 construct: text names Donors 8, 19 and 30
# [3] = target: T3, purified interference factor(s) from serum of Donor B; test: Biacore, immobilized interference factor
# T3 construct: text names Donors 8, 19 and 30
# [4] = target: T4, purified interference factor(s) from serum of Donor C; test: Biacore, immobilized interference factor
# T4 construct: text names Donors 8, 19 and 30
Binder,binding vs Reference Sequence (=100%) [1],binding vs Reference Sequence (=100%) [2],binding vs Reference Sequence (=100%) [3],binding vs Reference Sequence (=100%) [4]
B1,0%,1%,4%,–
B2,0%,9%,25%,7%
B3,4%,1%,–,–
B4,3%,3%,20%,–
B5,3%,0%,–,–
B6,4%,0%,–,–
B7,22%,0%,–,–
B8,44%,88%,105%,87%
B9,2%,0%,–,–
B10,106%,90%,105%,98%
B11,106%,80%,120%,84%
B12,101%,102%,117%,96%
B13,26%,38%,115%,49%
B14,1%,96%,96%,100%
B15,48%,81%,29%,84%
B16,23%,73%,121%,64%
B17,45%,70%,47%,56%
